Test results from patent US20250262297A1, “ALLERGY ANTIGEN AND EPITOPE THEREOF” (HOYU CO., LTD., priority 2017, published 2025).

B1: alpha-1,4 glucan phosphorylase L isozyme, chloroplastic/amyloplastic (protein)
chain: MASSSTTMRFSAASTGAAAALPRRSSVAGFIGVAARSSAKSRLRFIGRNANLSLRMRRMSSFSVVKCVSGSEAKVQDTVAKQQEATTSLSSFTPDASSIASSIKYHAEFTPLFSPENFDLPQAFLATAQSVRDSLIINWNATYDYYEKLNVKQAYYLSMEFLQGRALLNAIGNLELTGPYAEALSKLGHKLENVAYQEPDAALGNGGLGRLASCFLDSLATLNYPAWGYGLRYKYGLFKQRITKDGQEEVAEDWLEMGNPWEIIRNDVSYPVKFYGKVVSGSDGKKHWIGGEDIKAVAHDVPIPGYKTKTTINLRLWSTKAASEEFDLSAFNAGRHTEASEALANAEKICYILYPGDEPIEGKILRLKQQYTLCSASLQDIIARFERRSGANVNWEEFPEKVAVQMNDTHPTLCIPELMRILIDVKGLNWKDAWNITQRTVAYTNHTVLPEALEKWSLDLMQKLLPRHIEIIEMIDEELVRTIIAEYGTENSDLLEKKLKEMRILENVELTAEFADILVKSKEAIDIPSEELQSSEQAEAEDEKDDDEVEAVAKKNGTDESSIEDEKEELPEPVPEPPKLVRMANLCVVGGHAVNGVAEIHSEIVKDDVFNAFYKLWPEKFQNKTNGVTPRRWIRFCNPDLSKIITEWIGTEDWVLNTGKLAELRKFVDNEDLQVQWREAKRSNKVKVAAFIREKTGYSVSPDAMFDIQVKRIHEYKRQLMNIFGIVYRYKKMKEMSAAEREANFVPRVCIFGGKAFATYVQAKRIVKFITDVGATVNHDPEIGDLLKVVFVPDYNVSVAEMLIPASELSQHISTAGMEASGTSNMKFAMNGCILIGTLDGANVEIREEVGADNFFLFGAKAHEIAGLRKERAEGKFVPDPRFEEVKEFVRSGIFGSYNYDELMGSLEGNEGFGRADYFLVGKDFPSYIECQEKVDEAYRDQTKWTRMSILNTAGSYKFSSDRTIHEYAREIWNIEPVQLP
B2: triosephosphate isomerase isoform X1 (protein)
chain: MGRKFFVGGNWKCNGTTEEVKKIVTTLNEAKVPGEDVVEVVVSPPFVFLPFVKSLLRPDFHVSAQNCWVRKGGAYTGEVSAEMLVNLGIPWVIIGHSERRQLLNESNEFVGDKVAYALQQGLKVIACIGETLEQREAGTTTAVVAEQTKAIAAKISNWDNVVLAYEPVWAIGTGKVATPAQAQEVHADLRKWVHDNVSAEVAASVRIIYGGSVNGGNCKELAAQPDVDGFLVGGASLKAEFVDIINAATVKKN
modifications: Glycine max
notes: spot also identified as triosephosphate isomerase, cytosolic
B3: 51 kDa seed maturation protein precursor (protein)
chain: MASKVVSVLVIAMMLFAMNCNCTSVGHMPSTKEEGHDFQESKAKTTQTANKAMETGKEGQEAAESWTEWAKEKLSEGLGFKHDQESKESTTNKVSDYATDTAQKSKDYATDTAQKSKDYAGDAAQKSKDYAGDAAQKTKDYASDTAQTSKDYAGDAAQKSKGYVGDAAQKTKEYVGDAAQKTKDYATDAAQKTKDYATQKTKDYASDATDAAKKTKDYAAQKTKDYASEASDVAQNTKDYAAQKTKDYASGGAQKTKDYASGGAQKTKDYASDAAQKTKDYASDGAQKSKEYAGDVALNAKDYAQKSKDYAGDAAQNVKDYASDAVQKRKEYSGDASHKSKEASDYASETAKKTKDYVGDAAQRSKGAAEYASDAAQRTKEYAGDATKRSKEASNDHANDMAQKTKDYASDTAQRTKEKLQDIASEAGQYSAEKAREMKDAAAEKASDIAKAAKQKSQEVKEKLGGQHRDAEL
modifications: Glycine max
notes: spot also identified as Lea protein precursor
B4: superoxide dismutase [Fe], chloroplastic isoform X1 (protein)
chain: MASLGGLQNVSGINFLIKEKGCCMLQGPKVNAKFELKPPPYPLNGLEPVMSQQTLEFHWGKHHKTYVENLKKQVVGTELDGKSLEEIIVTSYNKGDILPAFNNAAQVWNHDFFWECMKPGGGGKPSGELLELIERDFGSFVKFLDEFKAAAATQFGSGWAWLAYRARKFDGENVANPPSPDEDNKLVVLKSPNAVNPLVWGGYYPLLTIDVWEHAYYLDFQNRRPDYISVFMDKLVSWDAVSSRLEQAKALITSA
modifications: Glycine max
notes: spot also identified as iron-superoxide dismutase
B5: transketolase, chloroplastic (protein)
chain: MASSTSSISLSQALLRPTTTSLPSSSSSLRLTPTLRPTPPALSLRRRLTTSIRAAASVKTVEKATADAALVEKSVNTIRFLAIDAVEKANSGHPGLPMGCAPMGHVLYDETMKYNPKNPFWFNRDRFVLSAGHGCMLQYALLHLAGFDSVKEEDLREFRQWGSRTPGHPENFETPGIEVTTGPLGQGIANAVGLALAEKHLAARYNKPDNEIVDHYTYAILGDGCQMEGIANEACSLAGHWGLGKLIAFYDDNHISIDGNTEIAFTESVDSRFEGLGWHVIWVKNGNNGYDDIRAAIKEAKAVKDKPTLIKVTTTIGYGSPNKANSYSVHGSALGAKEVDATRQNLGWSHEPFHVPEDVKKHWSRHTPEGAALEAEWNAKFAEYEKKYKEEAAELKSIINGEFPAGWEKALPTYTPESPADATRNLSQTNLNALAKVLPGLLGGSADLASSNMTLLKMFGDFQKDTPAERNVRFGVREHGMGAICNGIALHSPGLIPYCATFFVFTDYMRGAIRLSALSEAGVIYVMTHDSIGLGEDGPTHQPIEHLASFRAMPNILMLRPADGNETAGAYKVAVLNRKRPSILALSRQKLPQLPGTSIEGVEKGGYTISDNSTGNKPDVILIGTGSELEIAAKAADDLRKEGKAVRVVSLVSWELFDEQSEAYKESVFPAAVSARVSIEAGSTFGWEKIVGAKGKAIGIDRFGASAPAGRIYKEFGITKEAVVAAAKELI
B6: aconitate hydratase 1 (protein)
chain: MATENPFNSILTTLEKPGGAGEFGKYFSLPALNDRRIDRLPYSVRILLESAIRNCDEFQVKSNDVEKIIDWENTSPKLVEIPFKPARVLLQDFTGVPAVVDLACMRDAMNKLGGDSNKINPLVPVDLVIDHSVQVDVARSENAVQANMELEFQRNKERFGFLKWGSNAFNNMLVVPPGSGIVHQVNLEYLGRVVFNTNGVLYPDSVVGTDSHTTMIDGLGVAGWGVGGIEAEAAMLGQPMSMVLPGVVGFKLLGKLRDGVTATDLVLTVTQMLRKHGVVGKFVEFYGEGMSELSLADRATIANMSPEYGATMGFFPVDHVTLQYLRLTGRSDETVSMIESYLRANKMFVDYSEPQVERVYSSYLELNLEDVEPCVSGPKRPHDRVPLREMKVDWHACLNNKVGFKGFAVPKESQNKVAEFTFQGTPAHLRHGDVVIAAITSCTNTSNPSVMLGAALVAKKACELGLQVKPWIKTSLAPGSGVVTKYLQRSGLQKYLNELGFNIVGYGCTTCIGNSGDINEAVASAITENDIVAAAVLSGNRNFEGRVHPLTRANYLASPPLVVAYALAGTVDIDFDTEPIGIGKDGTKIFFRDIWPSSEEIANVVQSSVLPAMFRDTYNAITQGNPMWNNLSVPTGTLYAWDPTSTYIHEPPYFRDMSMSPPGSHGVKDAYCLLNFGDSITTDHISPAGSIHKDSPAARYLIERGVDRRDFNSYGSRRGNDEVMARGTFANIRIVNKFLNGEVGPKTIHIPSGEKLSVFDAAEKYKSEGHDMIILAGAEYGSGSSRDWAAKGPMLLGVKAVIAKSFERIHRSNLVGMGIIPLCFKPGDDADSLGLTGHERYTIDLPSNVNEIRPGQDVTVVTDAGKSFVSTLRFDTEVELAYFNHGGILQYVIRNMVNAKH
modifications: Glycine max
B7: chaperonin CPN60-2, mitochondrial (protein)
chain: MYRFATSLASKARIARSSTQQIGSRVTWNRNYAAKDIKFGVEARALMLKGVEELADAVKVTMGPKGRNVVIEQSFGAPKVTKDGVTVAKSIEFKDKVKNIGASLVKQVANATNDVAGDGTTCATILTKAIFTEGCKSVAAGMNAMDLRRGINMAVDAVVTNLKSRARMISTSEEIAQVGTISANGEREIGELIAKAMEKVGKEGVITISDGKTLYNELEVVEGMKLDRGYISPYFITNQKNQKCELEDPLIIIHEKKISSINAIVKVLELALKRQRSLLIVAEDVESDALATLILNKLRAGIKVCAIKAPGFGENRKSGLQDLAVLTGGQLITEELGLNLEKVDLDLFGSCKKITISKDDTVILDGAGDKKAIEERCEQIRSAIENSTSDYDKEKLQERLAKLSGGVAVLKIGGASEAEVGEKKDRVTDALNATKAAVEEGIVPGGGVALLYASSELDKLQTANFDQKIGVQIIQNALKTPVHTIASNAGVEGAVVVGKLLEQNDPDLGYDAAKGEYVDMVKTGIIDPLKVIRTALVDAASVSSLMTTTEAVVSELPKDDKDVPAMGGGMGGMDY
modifications: Glycine max
notes: spot also identified as chaperonin CPN60-2, mitochondrial-like isoform X1

Tested on: IgE antibodies from soybean-allergic patients
Test: Immunoblotting of two-dimensional electrophoresis pattern of soybean proteins with patient serum
Format: binding, human
Settings: spot in 2D electrophoresis gel of soybean proteins; patient serum compared with healthy subject serum
Source text: Transfer to membrane was done using the following transfer system and transfer buffer. • Transfer system: XCell SureLock Mini-Cell and XCell II Blot Module (produced by Life Technologies) • Transfer buffer: NuPAGE Transfer Buffer (X20) (produced by Life Technologies), used in a form diluted 20-fold with milliQ water.
To be specific, proteins in the two-dimensional electrophoresis gels were transferred to a membrane (PVDF membrane) according to the following procedure. • (1) The PVDF membrane was immersed in 100% methanol followed by milliQ water, and then moved into the transfer buffer to hydrophilize the PVDF membrane. • (2) After sponge, filter paper, the gels treated by second-dimensional SDS-PAGE, the hydrophilized PVDF membrane, filter paper, and sponge were put in place in this order, the transfer system was energized at a constant voltage of 30 V for one hour.
Immunoblotting of the membrane was carried out using, as a primary antibody, a serum sample from a patient with a soybean allergy or a serum sample from a healthy subject.
Immunoblotting of the membrane was carried out according to the following procedure. • (1) The transferred membrane was shaken in a 5% skim milk/PBST solution (a PBS buffer containing 0.3% Tween 20 nonionic surfactant) at room temperature for one hour. • (2) The membrane was left to stand in a solution of 3% primary antibody serum in 5% skim milk/PBST at room temperature for one hour. • (3) The membrane was washed with a PBST solution (5 min.×3 times). • (4) The membrane was left to stand in a 1:2500 dilution of the secondary antibody, anti-human IgE-HRP (horseradish peroxidase), with a 3% skim milk/PBST solution at room temperature for one hour. • (5) The membrane was washed with a PBST solution (5 min.×3 times). • (6) The membrane was left to stand in Pierce Western Blotting Substrate Plus (produced by Thermo Fisher Scientific) for 5 minutes.
The membrane obtained through the foregoing series of treatments was subjected to fluorescent image scanning on Typhoon 9400 (produced by GE).
The immunoblots obtained with the serum from the soybean-allergic patient were compared with those obtained with the control serum from the healthy subject.

| Molecule | specific binding to IgE antibodies from soybean-allergic patients |
| --- | --- |
| B1 | specific binding |
| B2 | specific binding |
| B3 | specific binding |
| B4 | specific binding |
| B5 | specific binding |
| B6 | specific binding |
| B7 | specific binding |
